# In paper PMC12631009, “Dominant‐Negative Effects of p53 R337 Variants in Li–Fraumeni Syndrome: Impact on Tetramer Formation and Transcriptional Activity” (Chembiochem, 2025):
# T1: Biotin-(Aca)2-p53TD (biotin-labeled WT p53 tetramerization domain peptide, residues 319-358) (human, biotin conjugated at the N-terminus with two residues of aminocaproic acid (Aca) as a linker)
# T1 construct: p53 tetramerization domain, human, residues 319-358; Held on NeutrAvidin beads in the pull-down; also called Bio-(Aca)2-p53TD; biotin-labeled WT p53TD; source: synthetic peptide (solid-phase synthesis, reverse-phase HPLC purified); not shown: biotin, N-terminal, kept
# T1 peptide: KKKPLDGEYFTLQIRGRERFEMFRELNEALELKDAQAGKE
# B1: WT p53TD peptide (residues 319-358 of human p53), nonbiotinylated (peptide)
# peptide: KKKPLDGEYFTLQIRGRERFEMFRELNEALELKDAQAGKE
# notes: p53 tetramerization domain, human, residues 319-358; source: synthetic peptide (solid-phase synthesis, reverse-phase HPLC purified)
# Molecular target: T1, Biotin-(Aca)2-p53TD (biotin-labeled WT …)
# Assay: pull-down; avidin-biotin pull-down: Bio-(Aca)2-p53TD mixed with nonbiotinylated peptide at equimolar concentrations (10 μM) in 50 mM Na phosphate buffer (pH 7.5), 100 mM NaCl; boiled 5 min, cooled to promote hetero-oligomerization; bound to NeutrAvidin beads at 4 °C for 2 h; eluted with 80% acetic acid; peptides quantified by reverse-phase HPLC; result as ratio of peptide pulled down to biotinylated p53TD
# Conditions: both partners purified
binder,measurement,value
B1,ratio of peptide pulled down to biotinylated p53TD,0.81
